# Experiment: soluble on expression in E. coli; label from the status in PepcDB or PDB records
row,Sequence,soluble on expression in E. coli
1,MAEWCADHLRNCEGWKSAGLELSTTSDENAKWLDACIRQLVSWSDCTSLGGFHTSIEKLVASDPEAIMARTFLVGLSGLGTEAAARNVEFAKKMDQLEIDAEKYGNAREKRHAKAAILWGRGKHHEAAIEWDKLLDDYPTDLIAVKFSHDAHFFNGNQIGKKNAIEKVIHKWNADLPCYSYLHGMYAFGLEECGIYDDAETQADRALQLNRFDCWASHAKAHVLEMNGRHKEGKEFMYKTEDDWRQGWMLASHNYWHTALFHIEYAEYESALGIFDREIANRFNKTNSLLDMVDASSLLWRLELEGVNVGRDRWRKIEHLSKFIDNHSIVFNDVHLGLAIYRQEDLETEKKLRNSLEKYSSLLSEDNAQISKTIGMPLYDGMLDFARCDYDTAAETMYPIRDKVVQIGGSHAQRDLFVQTLIQSCILSKDPKNWALTPELLVERETLKHDSLLGQRLADKFRALHPL,not soluble
2,MSRKRTENGSESGPATSHVPVDRFGFLKQEHANSPERFSKSKTTSSTDHDREERKVRKWRKMIGVGGSDWKHYVRRKPNVVRRRIRKGIPDCLRGLVWQLISGSRDLLLMNPGVYEQLVIYETSASELDIIRDISRTFPSHVFFQKRHGPGQRSLYNVLKAYSVYDRDVGYVQGMGFIAGLLLLYMSEEDAFWLLVALLKGAVHAPMEGLYHAGLPLVQQYLFQLESLVKELIPKLGEHFTQEMINPSMYASQWFITVFSYSFPFPLALRIWDVFLSEGVKIVFKVGLALLKYCQDELVSKVTV,not soluble
3,MSKPEFIARQGRKPTGWLGHIVARVMARETRPENDRALSFLDLADGDSLIDIGCGHGETLFQADRIVRLSGSVGVDFSEVMLKRARARNRDAVWDTRMAFHCADTAALPFPDKRFGKALSVHTIYFWPNPAAHLAEAFRVLRRGGRFLFCYRSTADRRAVEEFPDTVYRFPSVQEVEEKLKLVGFLGPETTTEDIKGLEHHHHHH,not soluble
4,GPGSMPNPYTGNYEAARFVEYYASAQMLRDSVHRLHTVSIQRHMDALRRAESAHQKHTCPAAPIRSRQQIEEHANRMVYQEMLRRQKNMTKLAWDVYKPVPPKRLSSEELRSLVKRMYEQQMQNMTERKKEARQRQVVLSDEVLAETRRGRRMLRQRDIHRSLESGWRTPSSRAKYNDGKLLLVSGGNVKSTSKERPPDLGYLARLAKPLRPTERVNKC,not soluble
5,LAAGPALSARGYLALNGQTPAGCSLMEWQNDNNGRQRWCVRLVQGGGFAGPLFDGFDNLYVGQPGAIISFPPTQWTRWRQPVIGMPSTPRFLGHGRLLVSTHLGQLLVFDTRRGMVVGSPVDLVDGIDPTDATRGLADCAPARPGCPVAAAPAFSSVNGTVVVSVWQPGEPAAKLVGLKYHAEQLVREWTSDAVSAGVLASPVLSADGSTVYVNGRDHRLWALNAADGKAKWSAPLGFLAQTPPALTPHGLIVSGGGPDTALAAFRDAGDHAEGAWRRDDVTALSTASLAGTGVGYTVISGPNHDGTPGLSLLVFDPANGHTVNSYPLPGATGYPVGVSVGNDRRVVTATSDGQVYSFAP,not soluble
6,MRKILITGGAGFIGSALVRYIINETSDAVVVVDKLTYAGNLMSLAPVAQSERFAFEKVDICDRAELARVFTEHQPDCVMHLAAESHVDRSIDGPAAFIETNIVGTYTLLEAARAYWNALTEDKKSAFRFHHISTDEVYGDLHSTDDFFTETTPYAPSSPYSASKASSDHLVRAWLRTYGLPTLITNCSNNYGPYHFPEKLIPLMILNALAGKSLPVYGNGQQIRDWLYVEDHARALYCVATTGKVGETYNIGGHNERKNLDVVETICELLEELAPNKPHGVAHYRDLITFVADRPGHDLRYAIDASKIARELGCVPQETFESGMRKTVQWYLANESWWKQVQDGSYQGERLGLKG,soluble
7,MGSDKIHHHHHHMIIGNCLILKDFSSEPFWGAVEIENGTIKRVLQGEVKVDLDLSGKLVMPALFNTHTHAPMTLLRGVAEDLSFEEWLFSKVLPIEDRLTEKMAYYGTILAQMEMARHGIAGFVDMYFHEEWIAKAVRDFGMRALLTRGLVDSNGDDGGRLEENLKLYNEWNGFEGRIFVGFGPHSPYLCSEEYLKRVFDTAKSLNAPVTIHLYETSKEEYDLEDILNIGLKEVKTIAAHCVHLPERYFGVLKDIPFFVSHNPASNLKLGNGIAPVQRMIEHGMKVTLGTDGAASNNSLNLFFEMRLASLLQKAQNPRNLDVNTCLKMVTYDGAQAMGFKSGKIEEGWNADLVVIDLDLPEMFPVQNIKNHLVHAFSGEVFATMVAGKWIYFDGEYPTIDSEEVKRELARIEKELYSS,soluble
8,MAHHHHHHMNFLRRNAANLCKGKVLGKHLNCSVHELTNLNKRKISNITDLGKCGQRYQATHSGSTIGAKRFASSEAQKLSEVVKAEVQHEKSNYEAPDNIKKFLQTSGWKFEEQEGDVNMVLTKNVDGMKIIIDFQLVSPFQAEGENEAQAEMTDFSVTVEKPNKQGGITFYCTTLQNDEKFRYMIGNVKYYKNEEGKNSVSAYNGPEFEDLDDSLQTSLDEWLANLGVDSELCDFIDSCSIDKEQREYMSWLQNISNFIES,not soluble
9,GPGSMTERLSLSRDRINVLLLEGISQTAVEYFKSSGYTNVTHLPKALDKADLIKAISSAHIIGIRSRTQLTEEIFAAANRLIAVGCFSVGTNQVELKAARKRGIPVFNAPFSNTRSVAELVIGEIIMLMRRIFPRSVSAHAGGWEKTAIGSREVRGKTLGIVGYGNIGSQVGNLAESLGMTVRYYDTSDKLQYGNVKPAASLDELLKTSDVVSLHVPSSKSTSKLITEAKLRKMKKGAFLINNARGSDVDLEALAKVLQEGHLAGAAIDVFPVEPASNGERFSTPLQGLENVILTPHIGGSTEEAQERIGTEVTRKLVEYSDVGSTVGAVNFPQVQLPPRPTGTRFMHVHENRPGILNSLMNVFSHHHINIASQFLQTDGEVGYLVMEADGVGEASDAVLQEIREIPGTIRARLLY,soluble
10,MDFQHWLHEAVNQLRDSDSPRRDAEILLEYVTGKGRTYIMAFGETPLTDVQQQQLADLLQRRKQGEPIAYLTGLREFWSLPLFVSPATLIPRPDTECLVEQALARLPVKTCRILDLGTGTGAIALALACERPDCEVTAVDRMPDAVALAIRNAEHLAIRNVRILQSCWFSALSGQQFDMIVSNPPYIDAQDPHLSEGDVRFEPRSALVADENGMADLTHIIDNARQMLTPGGFLLLEHGWQQGEAVRAVFRRSGYSDVETCRDYGGNERVTCGRFTP,not soluble
11,MANQLSTQQVKRDITTDPTLLTGADIKKYFDPQNLLSEKQVGQALALCKGRNLNPFANEVYIVAYKNNSGTDFSLIVSKEAFMKRAERCEGYDGFEAGITVMRNGEMVEIEGSLKLPDDVLIGGWAIVYRKDRSHRYKVTVDFNEYVKLDKYGNPRSTWKSMPGTMIRKTALVQTLREAFPDELGNMYTDIDGGDTFDAIKDVTPQETQEEVRARKMAQIEQYKQEQTQKQTQKADTSYPVDEVSEHTDDPVQGELLDGELEY,not soluble
12,MTEEFNESMINDIKEGDKVTGEVQQVEDKQVVVHINGGKFNGIIPISQLSTHHIENPSEVVKVGDEVEAYVTKIEFDEENDTGAYILSKRQLETEKSYEYLQEKLDNDEVIEAEVTEVVKGGLVVDVGQRGFVPASLISTDFIEDFSVFDGQTIRIKVEELDPENNRVILSRKAVEQLENDAKKASILDSLNEGDVIDGKVARLTNFGAFINIGGVDGLVHVSELSHGTCSNTRRSCVSRLEHHHHHH,soluble
13,MSLALVVQKYGGSSVADAERIRRVAERIVATKKQGNDVVVVVSAMGDTTDDLLDLAQQVCPAPPPRELDMLLTAGERISNALVAMAIESLGAHARSFTGSQAGVITTGTHGNAKIIDVTPGRLQTALEEGRVVLVAGFQGVSQDTKDVTTLGRGGSDTTAVAMAAALGADVCEIYTDVDGIFSADPRIVRNARKLDTVTFEEMLEMAACGAKVLMLRCVEYARRHNIPVHVRSSYSDRPGTVVVGSIKDVPMEDPILTGVAHDRSEAKVTIVGLPDIPGYAAKVFRAVARRRRQHRHGAAERLQGRGRQDRHHLHLLPQTSGPPPWKNWTRSETRSASTQLLYDDHIGKVSLIGAGMRSHPGVTATFCEALAAVGVNIELISTSEDQRSRCCAATPNWTRPWSRCMKRSGSAATRRPRCTRGRDGRWACQEGHHHHHH,not soluble
14,MGSDKIHHHHHHMTQVIPPRCDTCACDDADWCHLQETTKLLLLATAQIELSLTDGDHNVTGLGQLFTQMAGHLTEVNRHLHGTADTPAAILAHSDSLMQAIDSGVMAFQFYDRISQRLNHVITALSLMEAMLGDEQRRHSQAAWTNLQGEIQAHYSLDCERQMFAALLEGVPIHEALNAYRETHLHQTKQDVELF,not soluble
15,MRGSAFNGKWETESQEGYEPFCKLIGIPDDVIAKGRDFKLVTEIVQNGDDFTWTQYYPNNHVVTNKFIVGKESDMETVGGKKFKGIVSMEGGKLTISFPKYQQTTEISGGKLVETSTASGAQGTAVLVRTSKKVLVPR,soluble
16,MSKFYSEQFKRDAVALYENNENLSLAAAAAELRVNRASLHQWKKELGTGKRTRMIEAKAQAEAASDAERIRALEKENAKLREERDILRKAAKYFAEETSWLEHHHHHH,not soluble
17,MSEDWPQHFPPRGTVPDAEVYDQFISASTLQWWYVNAHLTVKGEDNSSLAFFASFFRQAGDNCPTAATKYYDACVWALIDLKNKKCYAESALDPESIDQLKLRLDPAVMGRKLEHVEVALLELLNKGRVPRPDRLLKRKAVYTQHPFSIALDDSCVMTIAQEGSARRYTFSLTNAADDVHVEVCLETQQQPVLHGKDGCVNGMYYYYFPSMSVTGYVVVKGLKREVTGLGWYDREVGGSTAEVDREAKYTWSWLSLHASNMSQLSIFYISGNAEDEGKERVIVETRADGSRHYHDDLIMETNKSWSSLVTFMQYPSEFRLCSASMGLDVTIHTAFDAQEIGTVLVGGAGFYEGVVEGSGVCSGDAVTLRGFFEYKKNAAPYRNTSELLKYVGSYVHGALEEIYPLAASDSWLSENVLGRYAMDRGAPADKICETLFRPVRSIIDRGGKSWRSLILVSCCNALSRQYFDCRRYIAVAELLHVGSLIIDDIQDNSVVRRGGKCVHVEYGVATAINAGSACYFMGPRAARIQDLPPEKASRIYQLYFDVLLAGHAGQGLDIYRLDYLMPKVVETGDASTLFDALDAIHTYKTGGAVGALCSMACVLCEAPTVLSEAVERFGLALGLAFQIVDDALNIRGFEENLKEEAEDIKDGKITYPTAIAMGRLEAADRQTLWAILRKPTKEAADIQQAVELIMKVDATSECFLIARHRLQEMWNALDPLLEDSFPKLLMRTFCSFLVERKY,soluble
18,FDVERKAAPAIAESDLRVASFNVLNYFTSVADSGNNNPTGQNRGATNHDEFLIQQAKIVSAMNKMDADIIGLMEVENNGFGDGSAVQNLVDALNAEIDDADDHYTYVEIADKDKYQEEYFGSDAIMVAILYRAKVVTPKEAAKVIFTPEQHIAENTITRKDGAESNPAYDKYQRHSLLQTFTVQESGEDLSIVVNHFKSKGSECIEEWIAGVEDSEPADLQGNCNNFRVSAAHAVGEALKDVKGDVLLMGDLNAYGMEDPLLTLTDYSKEKYGRDIYTAGYTTINGGELQVEQTQIKQGYGLNNLNTLLHGTDTFSYTYSGELGNLDHALASNSLAQKVVAIEDWHINSLESNLFEYGSKYTGDMPKYKDAFSASDHDPVIIAIDLPDTDIDLP,not soluble

# Source: the DeepSol protein solubility set
